# Reference: patent US11202837B2, “Biological materials and uses thereof” (Antikor Biopharma Limited, priority 2014, dated 2021)
# Columns and labels:
# [1] = Concentration reached and storage stability of purified conjugates in buffer; format: physicochemical; details: after purification and concentration
# HER2 = HER2 (Homo sapiens, UniProt P04626); experiment: Rat urine analysed on a HER2-Biacore SPR chip; format: in vivo; details: 10-fold concentrated urine, compared to free scFv samples
# Experimental: (A) A single i.v. dose was injected into male Sprague-Dawley rats at 4 mg/kg. Plasma samples were taken at time points indicated and analysed by ELISA using anti-protein detection (total protein, indicated by solid lines, closed symbols) and where relevant anti-drug detection (total ADC, indicated by dashed lines, open symbols). The SE of the mean of each group and experimental triplicates are shown. ADC scFv (TCT1067)-P5C5 (circles) (n=3) and scFv (TCT1067) (squares) (n=3). (B) 10-fold concentrated urine collected over 24 hours analysed on a HER2-Biacore SPR chip for the scFv (TCT1067)-injected rats, 3 animal samples. The scFv reference is shown. The bulk shifts in the urine samples are due to the concentration of urine components. (C) 10-fold concentrated urine collected over 24 hours analysed on a HER2-Biacore SPR chip for the scFv (TCT1067)-P5C5 conjugate-injected rats, 3 animal samples. The scFv (TCT1067)-P5C5 reference is shown. The bulk shifts in the urine samples are due to the concentration of urine components.
# The scFv (TCT1067)-P5C5 conjugate were detected in the plasma via its T7 tag (detecting total antibody) and via the payload (detecting total ADC). […] The urine from the treated animals was collected over 24 hours, concentrated 10-fold in a spin concentrator (MWCO-10 kDa) and dialysed against PBS. These samples, from three rats per group, were analysed on a Biacore SPR chip.
# [2] = Plasma pharmacokinetics in Sprague-Dawley rats (ELISA); format: in vivo, rat
# Experimental: Rats. Male Sprague-Dawley rats (sourced from Charles River, UK) were group housed in a temperature and light controlled facility on a 12 hour light/dark cycle with food and water available ad libitum. Rats selected for study inclusion were individually housed until completion of the study. All animals were subjected to health monitoring in accordance with the guidelines by the onsite home office registered veterinarian. All animal experimentation was covered under the UK Animals (Scientific Procedures) Act (1986) and EU directive 86/609/EEC. All such work was monitored by regular inspections of procedures and facilities by the on-site Veterinarian and UK Home Office inspectors. The study design required the surgical implantation of catheters into the jugular of male Sprague-Dawley rats.
# Rats were anaesthetised using the inhalation anaesthetic isoflurane and placed in dorsal recumbency. The right jugular vein was exposed and a loose ligature was placed caudally and the cranial end of vein was ligated. A small incision was made between the ligatures into which the catheter (polyethylene 50 tubing) was inserted. The catheter was secured in place by tying the loose ligature around the catheterised vessel. A small incision was made in the scapular region to serve as the exit site of the catheter. The catheter was subcutaneously tunneled and exteriorised through the scapular incision. Patency of the catheter was tested, and the catheter was filled with a locking solution (heparinised saline) and sealed with a stainless steel pin. Post-operative monitoring of animals was performed according to Home Office good practice guidelines. Intravenous dosing was via the tail vein.
# Therapeutic (test) Agents. All test agents were supplied as ready-to-dose dosing solutions. All dosing solutions were stored at 4° C. until dosed. All treatments were administered in a dosing volume scaled to the body weights of the individual animals to obtain the dosing concentration described in the treatment tables.
# Treatment (rats). On Day 1 of the study, rats were divided into groups of three animals (per test agent being evaluated), and dosing was initiated according to the treatment plan summarized in the tables below
# Sampling (rats). Serial venous blood samples (approx. 0.1-0.2 ml) were collected via the exteriorised jugular vein catheter at specified time points (0.5 to 72 hrs post dosing) and placed in heparinised containers. Prior to taking the blood samples the catheter was evacuated of heparinised saline to prevent dilution of the blood sample. Following each blood sample the volume of blood removed is replaced with an equal volume of heparinised saline via the catheter and sealed. Blood samples were centrifuged (5 minutes, 16,100 g, 4° C.) to separate the plasma. Plasma samples were transferred to fresh containers and promptly frozen and stored at −20° C. until used for analysis.
# Quantification of test agents in plasma. An ELISA was carried out as described in Example 31 The detecting antibodies were (a) Anti-T7 tag to detect the scFv (total antibody), (b) Anti-Human Fab-specific to detect trastuzumab (total antibody), (c) Anti-MMAF (Concortis), Anti-MMAE (Concortis), anti-DM1
# (Concortis) and anti-cemadotin (in-house mouse monoclonal antibody, Example 33 that also recognised P5C5 and AuristatinF), total ADC. The reference test agents were used to construct a calibration curve for which the plasma samples were compared to, in order to quantify the amount present. The concentration was plotted against time (average of three animals with standard error) and fitted to a 2-phase decay curve using GraphPad Prism to derive kinetic parameters.
# [3] = tested on: BT474 human breast carcinoma xenografts; experiment: Tumour penetration in BT474 xenografts, immunohistochemistry 2 hrs post dose; format: in vivo, mouse; details: 5 mg/kg single i.v. dose, SCID mice, BT474, payload detection (total ADC)
# Experimental: (§1) Mice. […] The animals were fed ad libitum water (reverse osmosis, 1 ppm Cl), and NIH 31 Modified and Irradiated Lab Diet® consisting of 18.0% crude protein, 5.0% crude fat, and 5.0% crude fiber. The mice were housed on irradiated Enrich-o'cobs™ Laboratory Animal Bedding in static microisolators on a 12-hour light cycle at 20-22° C. (68-72° F.) and 40-60% humidity. Charles River Discovery Services North Carolina (CR Discovery Services, who carried out this contracted R&D) specifically complies with the recommendations of the Guide for Care and Use of Laboratory Animals with respect to restraint, husbandry, surgical procedures, feed and fluid regulation, and veterinary care. The animal care and use program at CR Discovery Services is accredited by the Association for Assessment and Accreditation of Laboratory Animal Care International (AAALAC), which assures compliance with accepted standards for the care and use of laboratory animals.
# Therapeutic (test) Agents. […] All dosing solutions were stored at 4° C. until dosed. […] Treatment.
# [4] = Body weight and tolerability in BT474 xenograft studies; format: in vivo, mouse; details: BT474 xenograft study
# From the text: Treatment-Related Side Effects. Test animals were weighed Day 1. Animals were observed frequently for overt signs of any adverse, treatment-related side effects. Individual body weight loss was monitored every other day and any animal whose weight exceeded the limits for acceptable body weight loss was euthanized. Group mean body weight loss also was monitored as per protocol. Acceptable toxicity for the maximum tolerated dose (MTD) was defined as a group mean body weight loss of less than 20% during the test.
# [5] = tested on: BT474 human breast carcinoma xenografts; experiment: Tumour growth inhibition or eradication in BT474 xenograft model; format: in vivo
# Experimental: as §1, with “care.” for “care. The animal care and use program at CR Discovery Services is accredited by the Association for Assessment and Accreditation of Laboratory Animal Care International (AAALAC), which assures compliance with accepted standards for the care and use of laboratory animals.”
# Tumor weight may be estimated with the assumption that 1 mg is equivalent to 1 mm^3 of tumor volume.
# [6] = single i.v. dose 4 mg/kg, male Sprague-Dawley rats
molecule,measurement,setting,value
scFv (TCT1067)-P5-C5 (conjugate) scFv: SGSGGSGQVQLVQSGAEVKKPGESLKISCKGSGYSFTSYWIAWVRQMPGKGLEYMGLIYPGDSDTKYSPSFQGQVTISVDKSVSTAYLQWSSLKPSDSAVYFCARHDVGYCTDRTCAAWPEWLGVWGQGTLVTVSSGGGGSGGGGSGGGGSQSVLTQPPSVSAAPGQKVTISCSGSSSNIGNNYVSWYQQLPGTAPKLLIYGHTNRPAGVPDRFSGSKSGTSASLAISGFRSEDEADYYCASWDYTLSGWVFGGGTKLTVLMASMTGGQQMG,time stable in the buffer,[1],several months
same,HER2 binding activity in urine collected over 24 hours,HER2,comparable binding activity
same,"Bioavailability (blood exposure, AUC, 24 hrs)","[2]; rats, 1 × 4 mg/kg, mean AUC in anti-payload and anti-protein detection, Table 64",90.1 μghr/ml
same,Elimination half-life (hrs) Total ADC,"[2]; rats, 1 × 4 mg/kg, plasma ELISA anti-payload, Table 64",2.2085 h
same,Elimination half-life (hrs) Total Antibody,"[2]; rats, 1 × 4 mg/kg, plasma ELISA, Table 64",0.512 h
same,increase in bioavailability (AUC) over unmodified scFv,[2]; [6],4.5 fold
same,plasma clearance (in words),[2]; [6],clears more slowly than the unmodified fragment
same,stability in plasma (total antibody vs total ADC clearance lines),"[2]; single i.v. dose 4 mg/kg, rats",stable in plasma
same,volume of distribution compared to unmodified scFv,"[2]; single i.v. dose 4 mg/kg, rats",lower volume of distribution
same,localisation in tumour sections at 2 hrs post-dosing,[3],localise throughout the tumour
same,"body weight, heavier than the IgG ADC group of mice",[4],up to 20%
same,tolerability from body weights (in words),[4],better tolerated
same,tumour growth delay,[5]; 5 mg/kg dosing regimen,~20 days
same,tumour shrinkage compared with the trastuzumab ADC,[5]; scFv ADC dosed more frequently,more effectively
